Experimental data reported in patent publication EP4431526A1 (Emfret Analytics GmbH & Co. KG, dated 2024).
Each block holds one binder with its values, some of them ahead of it. Ends that are not written are not given here.

Experiments:
[1] = target: human GPVI, membrane expressed on platelets (human) (UniProt Q9HCN6); assay: flow cytometry ex vivo, hGP6^tg/tg platelets, competition with Emf3-FITC, 120 h after 4 mg/kg i.v.
[2] = target: human GPVI, membrane expressed on platelets (human) (UniProt Q9HCN6); assay: cell-based or functional assay
[3] = target: T1, human GPVI-Fc fusion protein (human, UniProt Q9HCN6 21-267, limits assumed); assay: method not stated at this place (BLI elsewhere); target printed as 'human GPVI'
T1 construct: also called human GPVI protein antigen
T1 sequence (looked up): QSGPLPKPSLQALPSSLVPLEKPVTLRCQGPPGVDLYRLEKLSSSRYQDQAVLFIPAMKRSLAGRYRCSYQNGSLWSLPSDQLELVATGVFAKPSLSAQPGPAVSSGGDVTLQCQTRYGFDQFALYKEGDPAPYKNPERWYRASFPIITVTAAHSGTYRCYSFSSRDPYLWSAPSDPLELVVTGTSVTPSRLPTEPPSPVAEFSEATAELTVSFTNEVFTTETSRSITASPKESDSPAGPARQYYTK

[4] = target: human GPVI, membrane expressed on platelets (human) (UniProt Q9HCN6); assay: flow cytometry ex vivo, hGP6^tg/tg platelets, competition with Emf3-FITC, 72 h after 4 mg/kg i.v.
[5] = target: human GPVI, membrane expressed on platelets (human) (UniProt Q9HCN6); assay: flow cytometry ex vivo, hGP6^tg/tg platelets, competition with Emf3-FITC, 1 h after 4 mg/kg i.v.
[6] = target: human GPVI, membrane expressed on platelets (human) (UniProt Q9HCN6); assay: flow cytometry ex vivo, hGP6^tg/tg platelets, competition with Emf3-FITC, 48 h after 4 mg/kg i.v.
[7] = target: human GPVI, membrane expressed on platelets (human) (UniProt Q9HCN6); assay: flow cytometry ex vivo, hGP6^tg/tg platelets, 48 h after 4 mg/kg i.v.
[8] = target: human GPVI, membrane expressed on platelets (human) (UniProt Q9HCN6); assay: flow cytometry ex vivo, hGP6^tg/tg platelets, competition with Emf3-FITC, 24 h after 4 mg/kg i.v.
[9] = target: human GPVI, membrane expressed on platelets (human) (UniProt Q9HCN6); assay: flow cytometry ex vivo, hGP6^tg/tg platelets, 72 h after 4 mg/kg i.v.
[10] = target: human GPVI, membrane expressed on platelets (human) (UniProt Q9HCN6); assay: flow cytometry ex vivo, hGP6^tg/tg platelets, competition with Emf3-FITC, 96 h after 4 mg/kg i.v.
GPVI peptide 201V-E215 = target: T2, GPVI peptide 201V-E215 (human, not fully specified); assay: peptide microarray, HRP anti-mouse IgG
T2 construct: On the array as peptide-cellulose conjugate; as soluble (cleavable, Fmoc-rink-amide linker) peptide in the neutralisation; also called Val201 to Glu215
T2 peptide: VVTGTSVTPSRLPTE

GPVI peptide 246S-P260 = target: T3, GPVI peptide 246S-P260 (human, not fully specified); assay: peptide microarray, HRP anti-mouse IgG
T3 construct: On the array as peptide-cellulose conjugate; as soluble (cleavable, Fmoc-rink-amide linker) peptide in the neutralisation; also called Ser246 to Pro260
T3 peptide: SITASPKESDSPAGP

[11] = target: human GPVI, membrane expressed on platelets (human) (UniProt Q9HCN6); assay: flow cytometry, hGP6^tg/tg platelets, anti-human IgG-Fab detection, EMA601 at 0.1 ug/mL
[12] = target: T1, human GPVI-Fc fusion protein; assay: ratio of KD values (0.46 nM against 0.195 nM)
[13] = target: human GPVI, membrane expressed on platelets (human) (UniProt Q9HCN6); assay: flow cytometry ex vivo, hGP6^tg/tg platelets, anti-human IgG-Fab-FITC, 1 h after 4 mg/kg i.v.
[14] = target: human GPVI, membrane expressed on platelets (human) (UniProt Q9HCN6); assay: flow cytometry, hGP6^tg/tg platelets, anti-human IgG-Fab detection, EMA601 at 0.2 ug/mL
[15] = target: T1, human GPVI-Fc fusion protein; assay: BLI (Octet), GPVI-Fc on biosensor, 1:1 fit

B3: HC1 LC2 humanized Fab (EMA601) (Fab, V domains shown)
VH: QVQLQESGPGLVKPSETLSLTCTASGFSLTSYGVTWIRQPPGKGLEWIGVIWGDGSTNYHSGLRSRVTISVDTSKSQFSLKLSSVTAADTAVYYCAKPIYYDFDDDAMDYWGQGTLVTVSS
VL: DIQMTQSPSSLSASVGDRVTITCKASQNVGTYVAWFQQRPGKAPKSLIYSASYRCSGVPSKFSGSGSGTDFTLTINSLQPEDFATYYCHQYNNYPLTFGQGTKVEIKR
notes: also called EMF601; VH1:VL2
- % of the epitopes occupied compared to the highest tested concentration (50 µg/mL) [11]: 57.3%
- fold increase of affinity against Emf6.1^Fab [12]: ~2.3 fold
- collagen-induced aggregation of washed human platelets [2]: 50 % reduction
- potency to inhibit GPVI function in human and hGP6^tg/tg platelets in vitro, against ACT017 [2]: 10 fold
- fold amount of bound Fab against ACT017 [13]: 1.8 fold
- % of the epitopes occupied compared to the highest tested concentration (50 µg/mL) [14]: 86.2%
- Kd [15]: 0.195 nM
- koff [15]: 0.000123 s⁻¹
- kon [15]: 628000 M⁻¹ s⁻¹

B4: HC4 LC3 humanized Fab (Fab, V domains shown)
VH: QVQLVESGGGVVQPGRSLRLSCAASGFSLTSYGVTWVRQSPGKGLEWVAVIWGDGSTNYHSGLRSRLTISRDNSKNTLYLEMNSLRTEDTATYYCAKPIYYDFDDDAMDYWGQGTKVTVSS
VL: DIQLTQSPSTLSASVGDRVTITCKASQNVGTYVAWYQQKPGKAPKLLIYSASYRCSGVPSRFSGSGSGTEFTLTISSLQPDDFTTYYCHQYNNYPLTFGQGTKVEIKR
notes: also called VH4:VL3
- Kd [15]: 0.593 nM
- koff [15]: 0.000655 s⁻¹
- kon [15]: 1.1e+06 M⁻¹ s⁻¹

Next, values leading:

- % of the binding epitopes on GPVI occupied [1]: 13%
- thrombus volume on collagen under flow (1000 s^-1), human blood [2]: 75 % reduction
- Kd [3]: 0.46 nM
- % of the binding epitopes on GPVI occupied [4]: 36%
- % of the binding epitopes on GPVI occupied [5]: 90%
- % of the binding epitopes on GPVI occupied [6]: 50%
- receptor occupancy [7]: > 50%
- % of the binding epitopes on GPVI occupied [8]: 76%
- receptor occupancy [9]: > 35%
- % of the binding epitopes on GPVI occupied [10]: 19%
B1: Emf6.1^Fab (Fab, V domains shown)
VH: QVQLKESGPGLVQPSQSLSITCTVSGFSLTSYGVTWVRQPPGKGLEWLGVIWGDGSTNYHSGLRSRLSISRDDSKSQVFLKLNSLQTDDTATYYCAKPIYYDFDDDAMDYWGQGTSVTVSS
VL: DIVMTQSQKFMSTSVGDRVSVTCKASQNVGTYVAWFQQKPGQSPKTLIYSASYRCSGVPDRFTGSGSGTDFTLTISNVQSDDLAEYFCHQYNNYPLTFGAGTKLELR
notes: also called Fab fragments of Emf6.1

- binding result (GPVI peptide 201V-E215): binds
- binding result (GPVI peptide 246S-P260): binds
B2: Emf6.1 IgG (mouse IgG2a kappa) (antibody, V domains shown)
VH: QVQLKESGPGLVQPSQSLSITCTVSGFSLTSYGVTWVRQPPGKGLEWLGVIWGDGSTNYHSGLRSRLSISRDDSKSQVFLKLNSLQTDDTATYYCAKPIYYDFDDDAMDYWGQGTSVTVSS
VL: DIVMTQSQKFMSTSVGDRVSVTCKASQNVGTYVAWFQQKPGQSPKTLIYSASYRCSGVPDRFTGSGSGTDFTLTISNVQSDDLAEYFCHQYNNYPLTFGAGTKLELR
notes: Mouse monoclonal IgG2a kappa from hybridoma (subclone of Emf6)
